Patent US20070105096A1
Values belong to the substance of their own block, whether it stands above or below them.

Tests used:
[1] = molecular target: type I angiotensin II receptor (AT1), bovine (bovine) (UniProt P25104); assay: cell-based or functional assay
[2] = molecular target: orphan G-protein coupled receptor G10d (human) (UniProt O15218); assay: cell-based or functional assay
Chain of orphan G-protein coupled receptor G10d (human) (O15218 whole entry): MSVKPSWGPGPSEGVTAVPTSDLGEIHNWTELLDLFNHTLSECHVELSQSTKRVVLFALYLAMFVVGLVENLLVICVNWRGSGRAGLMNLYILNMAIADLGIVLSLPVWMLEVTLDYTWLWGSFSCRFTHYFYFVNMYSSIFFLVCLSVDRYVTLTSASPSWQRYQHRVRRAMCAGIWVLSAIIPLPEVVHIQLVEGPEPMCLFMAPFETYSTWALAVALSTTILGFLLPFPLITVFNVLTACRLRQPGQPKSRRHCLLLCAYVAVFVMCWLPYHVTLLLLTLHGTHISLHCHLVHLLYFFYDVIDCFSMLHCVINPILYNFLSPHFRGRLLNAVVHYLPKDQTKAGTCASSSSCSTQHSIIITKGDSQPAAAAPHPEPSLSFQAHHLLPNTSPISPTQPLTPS

Chain of type I angiotensin II receptor (AT1), bovine (bovine) (P25104 whole entry): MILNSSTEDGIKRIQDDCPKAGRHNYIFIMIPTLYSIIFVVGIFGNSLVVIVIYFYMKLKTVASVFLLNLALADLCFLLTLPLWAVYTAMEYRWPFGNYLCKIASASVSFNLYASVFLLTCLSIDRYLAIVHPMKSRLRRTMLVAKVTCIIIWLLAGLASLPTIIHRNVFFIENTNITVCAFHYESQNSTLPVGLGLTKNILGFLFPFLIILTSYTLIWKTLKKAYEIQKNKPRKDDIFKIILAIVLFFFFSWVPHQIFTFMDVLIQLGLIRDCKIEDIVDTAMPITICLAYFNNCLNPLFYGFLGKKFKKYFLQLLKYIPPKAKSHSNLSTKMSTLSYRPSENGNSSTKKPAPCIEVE

firefly luciferase activity (CRE reporter), host GBCC13 with pAGal9-AT1, angiotensin II 100 nmol/L [1]: 85 fold
Substance: human angiotensin II (manufactured by Bachem) (from UniProt P01019 25-476) (peptide)

induction ratio of the reporter (Renilla reniformis luciferase, CRE), host GBCRC6 with pAGal9-G10d, 100 µmol/L of α-MSH as printed [2]: 10 fold
Substance: α-melanocyte-stimulating hormone (α-MSH) (from UniProt P01189 138-150) (peptide)

induction ratio of the reporter (Renilla reniformis luciferase, CRE), host GBCRC6 with pAGal9-G10d, 100 nmol/L of ACTH [2]: 11 fold
Substance: adrenocorticotropic hormone (ACTH) (from UniProt P01189 138-176) (peptide)
